{
  "source": "paper PMC6082832",
  "about": "“Effects of polymorphic variation on the thermostability of heterogenous populations of CYP3A4 and CYP2C9 enzymes in solution” (Scientific Reports, 2018)",
  "target": "the molecule itself",
  "assay": "SEC; BioSep-SEC-S3000 column (5-700 kDa), room temperature, 0.5 ml/min, 100 mM potassium phosphate pH 7.4; 20 µl sample at ~2 mg/ml total protein; monitored at 410 nm; sizes estimated from the Bio-Rad gel filtration standard calibration curve",
  "data": [
    {"protein": "CYP2C9 wild-type, N-terminally truncated, His-tagged recombinant protein (enzyme, human, UniProt P11712 29-490, looked up, biotin on the BCCP tag (50 µM biotin added to facilitate biotinylation), cytochrome P450 2C9, human; Vector pBJW102.2 (pQE-80L with BCCP and a glycine-serine linker 3' to the His-6 tag); also called CYP2C9 WT; source: E. coli DH5α, purified (Protino Ni-TED His-tag purification)) LPPGPTPLPVIGNILQIGIKDISKSLTNLSKVYGPVFTLYFGLKPIVVLHGYEAVKEALIDLGEEFSGRGIFPLAERANRGFGIVFSNGKKWKEIRRFSLMTLRNFGMGKRSIEDRVQEEARCLVEELRKTKASPCDPTFILGCAPCNVICSIIFHKRFDYKDQQFLNLMEKLNENIKILSSPWIQICNNFSPIIDYFPGTHNKLLKNVAFMKSYILEKVKEHQESMDMNNPQDFIDCFLMKMEKEKHNQPSEFTIESLENTAVDLFGAGTETTSTTLRYALLLLLKHPEVTAKVQEEIERVIGRNRSPCMQDRSHMPYTDAVVHEVQRYIDLLPTSLPHAVTCDIKFRNYLIPKGTTILISLTSVLHDNKEFPNPEMFDPHHFLDEGGNFKKSKYFMPFSAGKRICVGEALAGMELFLFLTSILQNFNLKSLVDPKNLDTTPVVNGFASVPPFYQLCFIPV", "values": [
      {"measurement": "stoichiometry N", "value": "~8", "unit": "subunits"}
    ]}
  ]
}
